This assay has as its target recombinant human FcγRIIa/CD32 R131 (Lumit binding immunoassay) (human) (UniProt P12318). The experiment in a line: Lumit FcγRIIa (CD32) (R131) Binding Immunoassay (Promega), competition with Tracer-LgBiT for FcγR-SmBiT, luminescence, n=1; right panel.

IC50 (read off the curve) data for 1 substance are collected here from US20240190958A1, “NOVEL ANTIBODY DRUG CONJUGATES WITH NOVEL NAPI2B ANTIBODIES, THERAPEUTIC METHODS AND USES THEREOF” (Tubulis GmbH, priority 2022, published 2024).

Chain of recombinant human FcγRIIa/CD32 R131 (Lumit binding immunoassay) (human) (P12318 34-217 H167R limits assumed): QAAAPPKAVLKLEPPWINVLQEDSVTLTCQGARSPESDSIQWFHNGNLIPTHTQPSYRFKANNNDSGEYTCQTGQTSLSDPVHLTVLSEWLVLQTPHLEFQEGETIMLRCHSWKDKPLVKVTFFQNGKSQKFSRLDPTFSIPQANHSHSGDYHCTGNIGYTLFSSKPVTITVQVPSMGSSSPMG

“IgG1 positive control (standard of the Lumit FcγR Binding Immunoassays) (antibody)”: the IC50 (read off the curve) was 3 mg/L.
